First the molecules themselves.
T1: CD123 (target of Example 19) (Homo sapiens (Human), UniProt P26951 19-305, limits assumed)
T1 sequence: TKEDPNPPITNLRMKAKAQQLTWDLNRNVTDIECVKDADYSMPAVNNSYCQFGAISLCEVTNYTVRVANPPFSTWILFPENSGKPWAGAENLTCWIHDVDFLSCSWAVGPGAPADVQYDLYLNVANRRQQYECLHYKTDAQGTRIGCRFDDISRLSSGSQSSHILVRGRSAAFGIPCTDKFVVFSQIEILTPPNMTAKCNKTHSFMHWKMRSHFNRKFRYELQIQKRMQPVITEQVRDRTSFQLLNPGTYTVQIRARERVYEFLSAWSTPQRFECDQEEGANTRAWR

B1: SEQ ID NO 119 (designed binder)
chain: MGSWTEFSIRLEAIYDRLVALGGSEAELAAFEKEIAAFESELQAYKGKGNPEVEVLRTYAANIRHELQAYRHN
B2: SEQ ID NO 121 (designed binder)
chain: MGSWYEFVIRLEAIEDRLWALGGSEAELAAFEKEIAAFESELQAYKGKGNPEVEVLRWYAADIRHELQAYRHN
B3: SEQ ID NO 127 (designed binder)
chain: MGSWYEFSMRLDAIYDRLMALGGSEAELAAFEKEIAAFESELQAYKGKGNPEVEQLRGYAANIRNELQAYRHN
B4: SEQ ID NO 126 (designed binder)
chain: MGSWHEFGVRLDAIYDRLMALGGSEAELAAFEKEIAAFESELQAYKGKGNPEVEFLRQAAANIRSELQAYRHN
B5: SEQ ID NO 64 (designed binder)
chain: MGSWWEFEDRLWAIDRRLMALGGSEAELAVFEQMIAHFEQILQVYKGKGNPEVEALHFEAHAIGMELAAYRHN
B6: SEQ ID NO 62 (designed binder)
chain: MGSWYEFEDRLAAIEARLWALGGSEAELADFEEEIAYFEHGLQWYKGKGNPEVEALESEAMAIIDELHAYRHN
B7: SEQ ID NO 113 (designed binder)
chain: MGSWFEFWDRLDAIEDRLYALGGSEAELAAFEKEIAAFESELQAYKGKGNPEVEELRDEAAWIRGTLQAYRHN
B8: SEQ ID NO 118 (designed binder)
chain: MGSWFEFWGRLEAIESRLKALGGSEAELAAFEKEIAAFESELQAYKGKGNPEVEELREHAAWIRAYLQAYRHN
B9: SEQ ID NO 65 (designed binder)
chain: MGSWEEFHERLDAIDERLEALGGSEAELAFFEDDIASFEDWLQWYKGKGNPEVEALSREADAINFELEAYRHN
B10: SEQ ID NO 61 (designed binder)
chain: MGSWVEFEYRLDAISDRLWALGGSEAELAFFENEIASFESDLQFYKGKGNPEVEALMFEAEAIDDELHAYRHN
B11: SEQ ID NO 60 (designed binder)
chain: MGSWIEFEDRLDAITDRLWALGGSEAELAEFEHQIAFFEEDLQWYKGKGNPEVEALHMEAEAIMEELGAYRHN
B12: SEQ ID NO 111 (designed binder)
chain: MGSWVEFENRLEAIENRLWALGGSEAELAAFEKEIAAFESELQAYKGKGNPEVEWLREDAAQIRMMLQAYRHN
B13: SEQ ID NO 108 (designed binder)
chain: MGSWYEFENRLGAIGDRLWALGGSEAELAAFEKEIAAFESELQAYKGKGNPEVEWLRDEAAYIRAVLQAYRHN
B14: SEQ ID NO 122 (designed binder)
chain: MGSWIEFEDRLEAIEDRLFALGGSEAELAAFEKEIAAFESELQAYKGKGNPEVEWLRQEAAEIRLMLQAYRHN
B15: SEQ ID NO 112 (designed binder)
chain: MGSWYEFWDRLEAIDDRLWALGGSEAELAAFEKEIAAFESELQAYKGKGNPEVEALRQEAAWIREELQAYRHN
B16: SEQ ID NO 120 (designed binder)
chain: MGSWYEFENRLEAIEERLWALGGSEAELAAFEKEIAAFESELQAYKGKGNPEVEMLREEAAFIRDWLQAYRHN
B17: SEQ ID NO 115 (designed binder)
chain: MGSWWEFEMRLEAIEDRLFALGGSEAELAAFEKEIAAFESELQAYKGKGNPEVESLRWEAAFIRDILQAYRHN
B18: SEQ ID NO 63 (designed binder)
chain: MGSWYEFEERLDAIEDRLIALGGSEAELAIFEDIIAFFEQDLQYYKGKGNPEVEALEMEAEAISIELDAYRHN
B19: SEQ ID NO 109 (designed binder)
chain: MGSWNEFYDRLSAIYFRLQALGGSEAELAAFEKEIAAFESELQAYKGKGNPEVEHLRWYAADIRMILQAYRHN
B20: SEQ ID NO 116 (designed binder)
chain: MGSWVEFYDRLHAIYFRLLALGGSEAELAAFEKEIAAFESELQAYKGKGNPEVEDLRWYAADIRLVLQAYRHN
B21: SEQ ID NO 117 (designed binder)
chain: MGSWYEFYNRLSAIYARLQALGGSEAELAAFEKEIAAFESELQAYKGKGNPEVEDLRWYAADIRYMLQAYRHN
B22: SEQ ID NO 106 (designed binder)
chain: MGSWHEFDQRLWAIEERLWALGGSEAELAAFEKEIAAFESELQAYKGKGNPEVETLRLYAALIRHDLQAYRHN
B23: SEQ ID NO 107 (designed binder)
chain: MGSWIEFESRLWAIEDRLLALGGSEAELAAFEKEIAAFESELQAYKGKGNPEVEFLRLEAADIREDLQAYRHN
B24: SEQ ID NO 26 (designed binder)
chain: MGSWNYFKDHLAWIKNSLEALGGSEAELAHFETAIASFERQLQEYKGKGNPEVEALRKEAAAIRDELQAYRHN
B25: SEQ ID NO 30 (designed binder)
chain: MGSWHYFKDHLAEIKGLLEALGGSEAELAHFEMAIADFEHNLQYYKGKGNPEVEALRKEAAAIRDELQAYRHN
B26: SEQ ID NO 31 (designed binder)
chain: MGSWHYFKGHLAEIKNHLEALGGSEAELAHFERAIAAFERSLQWYKGKGNPEVEALRKEAAAIRDELQAYRHN
B27: SEQ ID NO 27 (designed binder)
chain: MGSWLYFKEHLAHIKAWLEALGGSEAELAHFELAIADFEYHLQEYKGKGNPEVEALRKEAAAIRDELQAYRHN
B28: SEQ ID NO 29 (designed binder)
chain: MGSWFYFKQHLAWIKSYLEALGGSEAELAHFERAIAAFEQHLQMYKGKGNPEVEALRKEAAAIRDELQAYRHN
B29: SEQ ID NO 33 (designed binder)
chain: MGSWTYFKEHLAEIKYMLEALGGSEAELAHFEVAIADFEKMLQYYKGKGNPEVEALRKEAAAIRDELQAYRHN
B30: SEQ ID NO 34 (designed binder)
chain: MGSWWLFKDHLAEIKTALEALGGSEAELAHFEMAIAAFEKQLQYYKGKGNPEVEALRKEAAAIRDELQAYRHN
B31: SEQ ID NO 28 (designed binder)
chain: MGSWVYFKEHLAWIKTELEALGGSEAELAHFEHSIADFEMSLQFYKGKGNPEVEALRKEAAAIRDELQAYRHN
B32: SEQ ID NO 32 (designed binder)
chain: MGSWIYFKEHLAYIKKELEALGGSEAELAHFESAIAVFESTLQYYKGKGNPEVEALRKEAAAIRDELQAYRHN

T2 sequence (O14763 56-182 limits assumed): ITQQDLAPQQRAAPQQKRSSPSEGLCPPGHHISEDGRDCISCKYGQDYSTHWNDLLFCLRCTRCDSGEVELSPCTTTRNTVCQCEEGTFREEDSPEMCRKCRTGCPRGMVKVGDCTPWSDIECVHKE

The first assay has as its target T1, CD123 (target of Example 19). As to the kind of experiment: library selection; assay not described.
For the molecule B1, the binding result is “binds”.

Turning to B2, the binding result is reported as “binds”.

Consider B3, for which the binding result was “binds”.

Turning to B4, the binding result was “binds”.

For the molecule B5, the binding result is “binds”.

With B6, the binding result is “binds”.

With B7, the binding result was “binds”.

For B8, the binding result is listed as “binds”.

With B9, the binding result is given as “binds”.

As to B10, the binding result was “binds”.

For B11, the binding result is on record as “binds”.

Turning to B12, the binding result is on record as “binds”.

Regarding B13, the binding result is recorded as “binds”.

Regarding B14, the binding result is recorded as “binds”.

On to B15, for which the binding result is “binds”.

Regarding B16, the binding result is “binds”.

B17: the binding result is given as “binds”.

Turning to B18, the binding result is listed as “binds”.

Regarding B19, the binding result was “binds”.

Regarding B20, the binding result is “binds”.

As to B21, the binding result is recorded as “binds”.

For B22, the binding result is listed as “binds”.

Regarding B23, the binding result is on record as “binds”.

The next assay concerns the target T2, DR5-Fc (UniProt O14763 56-182, limits assumed).
T2 construct: purified recombinant target-Fc protein; not shown: Fc
Kind of assay: phage ELISA, target-Fc against non-specific control. As to the method:
Selections were also performed using F1, F2, F3, C1 & C2 trinucleotide phosphoramidite libraries. In most cases, libraries were pooled prior to use in selection. By combining equal volumes of the individual libraries, Pool F (libraries F1, F2 and F3) and Pool C (libraries C1 and C2) were generated. These libraries were used in selections for DBDpp binders to 4-1BB/CD137 as well as a larger panel of purified recombinant “target”-Fc proteins, including CD47, CTLA4, DR5, KIR, LAG3, OX40, PD1, PD-L1 and TIM3. (Many of these targets are considered immuno-regulatory factors (Pardoll et al., Nat. Rev. Cancer 12:252-264 (2012)). After incubation of the target with the pools of DBDpp phage libraries, bound phage-target complexes were captured and separated from unbound phage with protein A beads (target proteins were Fc fusions). After three rounds of selection, rescued phage clones were screened by ELISA for binding to the selected target.
For each target, approximately 90 DBDpp phage clones were screened by ELISA for binding to the target protein and as well as a non-specific control (e.g., IgG1-Fc). […] In some instances, for the ELISA screening plate in which the majority of DBDpp clones were positive, the entire plate was sequenced.
For orientation: ELISA stands for enzyme-linked immunosorbent assay.
B24: the “ELISA ratio (target to background)” value worked out at 13 ratio.

As for B25, the “ELISA ratio (target to background)” value is 11.4 ratio.

As to B26, the “ELISA ratio (target to background)” value was found to be 10.8 ratio.

Regarding B27, the “ELISA ratio (target to background)” value was found to be 12.3 ratio.

For the molecule B28, the “ELISA ratio (target to background)” value came out at 11.8 ratio.

Turning to B29, the “ELISA ratio (target to background)” value was 10.3 ratio.

In the case of B30, the “ELISA ratio (target to background)” value was found to be 9.75 ratio.

Turning to B31, the “ELISA ratio (target to background)” value was 12.1 ratio.

Turning to B32, the “ELISA ratio (target to background)” value was determined as 10.7 ratio.

These data come from patent publication US20180251563A1 (SUBDOMAIN, published 2018).
